Patent publication US20150065381A1
Several values for one entry are separate records, joined by “and”; a condition that tells them apart may be missing. Equal values may be shown once.

Assays:
[1] = target: aMLV envelope (from lysed pseudovirus); test: antigen capture ELISA, mAb 7.5 ug/ml, plate 2
[2] = target: BG505 envelope (gp120 monomer released from lysed pseudovirus) (HIV-1); test: antigen capture ELISA, mAb 7.5 ug/ml, plate 2
[3] = target: HIV-1 envelope of gp160 clone AG-010.c11 (HIV-1); test: capture ELISA, plate 2, mAb 0.8 ug/ml
[4] = target: HIV-1 envelope clone G-011.c02 (multiclade gp160 clone panel) (HIV-1); test: capture ELISA, plate 2, mAb 0.8 ug/ml
[5] = target: HIV-1 JRFL envelope (HIV-1); test: capture ELISA, plate 2, mAb 0.8 ug/ml
[6] = target: HIV-1 JRCSF envelope (HIV-1) (UniProt P20871); test: capture ELISA, plate 2, mAb 0.8 ug/ml
[7] = target: HIV-1 16055 envelope (HIV-1); test: capture ELISA, plate 2, mAb 0.8 ug/ml
[8] = target: HIV-1 envelope clone G-011.c05 (multiclade gp160 clone panel) (HIV-1); test: capture ELISA, plate 2, mAb 0.8 ug/ml
[9] = target: HIV-1 envelope of gp160 clone B-Acute-008.c11 (HIV-1); test: capture ELISA, plate 2, mAb 0.8 ug/ml
[10] = target: HIV-1 envelope of gp160 clone B-Acute-010.c08 (HIV-1); test: capture ELISA, plate 2, mAb 0.8 ug/ml
[11] = target: HIV-1 envelope of gp160 clone B-Chronic-014.c02 (HIV-1); test: capture ELISA, plate 2, mAb 0.8 ug/ml
[12] = target: HIV-1 envelope of gp160 clone B-Acute-010.c09 (HIV-1); test: capture ELISA, plate 2, mAb 0.8 ug/ml
[13] = target: HIV-1 envelope of gp160 clone AG-010.c14 (HIV-1); test: capture ELISA, plate 2, mAb 0.8 ug/ml
[14] = target: HIV-1 envelope of gp160 clone B-Acute-009-c08 (HIV-1); test: capture ELISA, plate 2, mAb 0.8 ug/ml
[15] = target: aMLV envelope (from lysed pseudovirus); test: antigen capture ELISA, mAb 2.5 ug/ml, plate 1
[16] = target: BG505 envelope (gp120 monomer released from lysed pseudovirus) (HIV-1); test: antigen capture ELISA, mAb 2.5 ug/ml, plate 1
[17] = target: HIV-1 envelope of gp160 clone AG-010.c11 (HIV-1); test: capture ELISA, plate 1, mAb 0.3 ug/ml
[18] = target: HIV-1 envelope clone G-011.c05 (multiclade gp160 clone panel) (HIV-1); test: capture ELISA, plate 1, mAb 0.3 ug/ml
[19] = target: HIV-1 envelope of gp160 clone AG-010.c14 (HIV-1); test: capture ELISA, plate 1, mAb 0.3 ug/ml
[20] = target: HIV-1 envelope of gp160 clone B-Acute-009-c08 (HIV-1); test: capture ELISA, plate 1, mAb 0.3 ug/ml
[21] = target: HIV-1 envelope of gp160 clone AG-010.c11 (HIV-1); test: capture ELISA, original data
[22] = target: HIV-1 envelope clone G-011.c02 (multiclade gp160 clone panel) (HIV-1); test: capture ELISA, original data
[23] = target: HIV-1 envelope clone G-011.c05 (multiclade gp160 clone panel) (HIV-1); test: capture ELISA, original data
[24] = target: HIV-1 envelope of gp160 clone B-Acute-008.c11 (HIV-1); test: capture ELISA, original data
[25] = target: HIV-1 envelope of gp160 clone B-Acute-010.c08 (HIV-1); test: capture ELISA, original data
[26] = target: HIV-1 envelope of gp160 clone B-Chronic-014.c02 (HIV-1); test: capture ELISA, original data
[27] = target: HIV-1 envelope of gp160 clone B-Acute-010.c09 (HIV-1); test: capture ELISA, original data
[28] = target: HIV-1 envelope of gp160 clone AG-010.c14 (HIV-1); test: capture ELISA, original data
[29] = target: aMLV envelope (from lysed pseudovirus); test: antigen capture ELISA, mAb 7.5 ug/ml, plate 1
[30] = target: BG505 envelope (gp120 monomer released from lysed pseudovirus) (HIV-1); test: antigen capture ELISA, mAb 7.5 ug/ml, plate 1
[31] = target: aMLV envelope (from lysed pseudovirus); test: antigen capture ELISA, mAb 0.3 ug/ml, plate 1
[32] = target: BG505 envelope (gp120 monomer released from lysed pseudovirus) (HIV-1); test: antigen capture ELISA, mAb 0.3 ug/ml, plate 1
[33] = target: HIV-1 envelope clone F1-002.c11 (multiclade gp160 clone panel) (HIV-1); test: capture ELISA, plate 2, mAb 0.8 ug/ml
[34] = target: HIV-1 envelope clone BF-002.c08 (multiclade gp160 clone panel) (HIV-1); test: capture ELISA, plate 2, mAb 0.8 ug/ml
[35] = target: HIV-1 envelope clone BF-002.c05 (multiclade gp160 clone panel) (HIV-1); test: capture ELISA, plate 2, mAb 0.8 ug/ml
[36] = target: HIV-1 envelope clone F1-002.c16 (multiclade gp160 clone panel) (HIV-1); test: capture ELISA, plate 2, mAb 0.8 ug/ml
[37] = target: HIV-1 envelope clone F1-002.c11 (multiclade gp160 clone panel) (HIV-1); test: capture ELISA, plate 1, mAb 0.3 ug/ml
[38] = target: HIV-1 envelope clone BF-002.c05 (multiclade gp160 clone panel) (HIV-1); test: capture ELISA, plate 1, mAb 0.3 ug/ml
[39] = target: HIV-1 envelope clone F1-002.c16 (multiclade gp160 clone panel) (HIV-1); test: capture ELISA, plate 1, mAb 0.3 ug/ml

PG9 (antibody)
ELISA OD [1]: 0.079 OD and 0.071 OD | ELISA OD [2]: 0.428 OD | ELISA OD [3]: 0.411 OD | ELISA OD [4]: 0.052 OD | ELISA OD [5]: 0.06 OD and 0.05 OD | ELISA OD [6]: 0.146 OD and 0.147 OD | ELISA OD [7]: 0.169 OD and 0.18 OD | ELISA OD [8]: 0.116 OD | ELISA OD [9]: 0.11 OD | ELISA OD [10]: 0.125 OD | ELISA OD [11]: 0.768 OD | ELISA OD [12]: 0.067 OD | ELISA OD [13]: 0.528 OD | ELISA OD [14]: 0.062 OD | ELISA OD [15]: 0.068 OD and 0.067 OD | ELISA OD [16]: 0.346 OD | ELISA OD [17]: 0.278 OD | ELISA OD [18]: 0.104 OD | ELISA OD [19]: 0.339 OD | ELISA OD [20]: 0.062 OD | ELISA OD [21]: 1.06 OD | ELISA OD (original data) [22]: 0.068 OD | ELISA OD (original data) [23]: 1.25 OD | ELISA OD [24]: 0.75 OD | ELISA OD [25]: 0.547 OD | ELISA OD [26]: 2.42 OD | ELISA OD [27]: 0.685 OD | ELISA OD [28]: 3.69 OD | ELISA OD [29]: 0.084 OD and 0.072 OD | ELISA OD [30]: 0.428 OD | ELISA OD [31]: 0.068 OD and 0.067 OD | ELISA OD [32]: 0.162 OD

PG16 (antibody)
ELISA OD [1]: 0.102 OD and 0.081 OD | ELISA OD [2]: 0.12 OD | ELISA OD [33]: 0.12 OD | ELISA OD [3]: 0.173 OD | ELISA OD [34]: 0.103 OD | ELISA OD [4]: 0.062 OD | ELISA OD [6]: 0.135 OD and 0.136 OD | ELISA OD [8]: 0.097 OD | ELISA OD [9]: 0.146 OD | ELISA OD [35]: 0.586 OD | ELISA OD [10]: 0.132 OD | ELISA OD [11]: 0.318 OD | ELISA OD [36]: 0.302 OD | ELISA OD [12]: 0.105 OD | ELISA OD [13]: 0.51 OD | ELISA OD [14]: 0.058 OD | ELISA OD [15]: 0.063 OD and 0.072 OD | ELISA OD [16]: 0.103 OD | ELISA OD [37]: 0.088 OD | ELISA OD [17]: 0.141 OD | ELISA OD [18]: 0.085 OD | ELISA OD [38]: 0.352 OD | ELISA OD [39]: 0.229 OD | ELISA OD [19]: 0.265 OD | ELISA OD [20]: 0.053 OD | ELISA OD [29]: 0.103 OD and 0.072 OD | ELISA OD [30]: 0.12 OD | ELISA OD [31]: 0.053 OD and 0.096 OD | ELISA OD [32]: 0.067 OD

PGT151 (antibody)
ELISA OD [1]: 0.114 OD and 0.116 OD | ELISA OD [2]: 0.094 OD | ELISA OD [33]: 0.072 OD | ELISA OD [3]: 0.061 OD | ELISA OD [34]: 0.054 OD | ELISA OD [4]: 0.081 OD | ELISA OD [5]: 0.077 OD and 0.054 OD | ELISA OD [6]: 0.064 OD and 0.055 OD | ELISA OD [7]: 0.06 OD | ELISA OD [8]: 0.079 OD | ELISA OD [9]: 0.203 OD | ELISA OD [35]: 0.133 OD | ELISA OD [10]: 0.135 OD | ELISA OD [11]: 0.2 OD | ELISA OD [36]: 0.082 OD | ELISA OD [12]: 0.087 OD | ELISA OD [13]: 0.131 OD | ELISA OD [14]: 0.082 OD | ELISA OD [15]: 0.068 OD and 0.053 OD | ELISA OD [16]: 0.063 OD | ELISA OD [37]: 0.054 OD | ELISA OD [17]: 0.055 OD | ELISA OD [18]: 0.064 OD | ELISA OD [38]: 0.08 OD | ELISA OD [39]: 0.062 OD | ELISA OD [19]: 0.118 OD | ELISA OD [20]: 0.085 OD | ELISA OD [21]: 0.119 OD | ELISA OD (original data) [22]: 0.086 OD | ELISA OD (original data) [23]: 0.145 OD | ELISA OD [24]: 0.321 OD | ELISA OD [25]: 0.211 OD | ELISA OD [26]: 0.247 OD | ELISA OD [27]: 0.092 OD | ELISA OD [28]: 0.522 OD | ELISA OD [29]: 0.098 OD and 0.075 OD | ELISA OD [30]: 0.094 OD | ELISA OD [31]: 0.068 OD and 0.057 OD | ELISA OD [32]: 0.057 OD

PGV04 (antibody)
ELISA OD [1]: 0.123 OD | ELISA OD [2]: 1.37 OD | ELISA OD [33]: 0.084 OD | ELISA OD [3]: 0.103 OD | ELISA OD [34]: 1.37 OD | ELISA OD [4]: 0.326 OD | ELISA OD [6]: 1.03 OD and 1.35 OD | ELISA OD [8]: 0.168 OD | ELISA OD [9]: 0.094 OD | ELISA OD [35]: 2.07 OD | ELISA OD [10]: 0.659 OD | ELISA OD [11]: 3.37 OD | ELISA OD [36]: 0.139 OD | ELISA OD [12]: 0.913 OD | ELISA OD [13]: 0.169 OD | ELISA OD [14]: 0.095 OD | ELISA OD [15]: 0.056 OD and 0.073 OD | ELISA OD [16]: 1.04 OD | ELISA OD [37]: 0.082 OD | ELISA OD [17]: 0.07 OD | ELISA OD [18]: 0.08 OD | ELISA OD [38]: 0.881 OD | ELISA OD [39]: 0.083 OD | ELISA OD [19]: 0.093 OD | ELISA OD [20]: 0.07 OD | ELISA OD [29]: 0.092 OD and 0.074 OD | ELISA OD [30]: 1.37 OD | ELISA OD [31]: 0.052 OD and 0.057 OD | ELISA OD [32]: 0.45 OD
